For assay [1], the target named is HLA-A*26:01. The experiment in a line: IEDB peptide-MHC binding, purified MHC/competitive/fluorescence; filed as Kd, often an IC50 or EC50 that approximates it; ≥ and ≤ were set here for values at or beyond the usual limits of such assays.
Assay [2] has as its target HLA-B*40:01. Description: IEDB peptide-MHC binding, purified MHC/direct/fluorescence; filed as Kd, often an IC50 or EC50 that approximates it; ≥ and ≤ were set here for values at or beyond the usual limits of such assays.
Another assay has as its target HLA-B*18:01. The assay is described as above.
In another assay the target is HLA-A*24:03. The description is as above.
A further assay concerns the target HLA-B*44:02. The description is as above.
Assay [3] has as its target HLA-A*03:01. Description: IEDB peptide-MHC binding, purified MHC/competitive/fluorescence; filed as Kd, often an IC50 or EC50 that approximates it; ≥ and ≤ were set here for values at or beyond the usual limits of such assays.
The target in assay [4] is HLA-B*40:01. The experiment in a line: IEDB peptide-MHC binding, purified MHC/competitive/radioactivity; filed as Kd, often an IC50 or EC50 that approximates it; ≥ and ≤ were set here for values at or beyond the usual limits of such assays.
In another assay the target is HLA-B*44:03. Described as above.
The next assay addresses HLA-A*29:02. Described as above. The conditions noted are these: source organism: Mammarenavirus tacaribeense.
In another assay the target is HLA-A*24:02. Described as above. The settings on record: source organism: Mammarenavirus tacaribeense.
For another assay, the target named is HLA-A*23:01. The assay is described as above. The settings on record: source organism: Mammarenavirus tacaribeense.
The next assay deals with HLA-B*08:01. The experiment in a line: IEDB peptide-MHC binding, purified MHC/direct/fluorescence; filed as Kd, often an IC50 or EC50 that approximates it; ≥ and ≤ were set here for values at or beyond the usual limits of such assays.
For assay [5], the target named is HLA-B*07:02. The description is as above.
For a further assay, the target named is HLA-A*01:01. The assay is described as above.
A further assay concerns the target HLA-A*02:01. The assay is described as above.
The next assay concerns the target HLA-B*58:01. Described as above.
The target in assay [6] is HLA-A*03:01. Described as above.
A further assay deals with HLA-B*27:05. The assay is described as above.
The next assay concerns the target HLA-A*69:01. The assay is described as above.
The target in assay [7] is HLA-A*11:01. Described as above.
Assay [8] has as its target HLA-A*26:01. Described as above.
In the next assay the target is HLA-A*68:01. The experiment in a line: IEDB peptide-MHC binding, purified MHC/competitive/radioactivity; filed as Kd, often an IC50 or EC50 that approximates it; ≥ and ≤ were set here for values at or beyond the usual limits of such assays. The conditions noted are these: source organism: Vaccinia virus WR.
The target of a further assay is HLA-B*35:01. The description is as above. The settings on record: source organism: Vaccinia virus WR.
A further assay addresses HLA-B*54:01. Described as above. The settings on record: source organism: Vaccinia virus WR.
Assay [9] has as its target HLA-B*07:02. The description is as above. The settings on record: source organism: Vaccinia virus WR.
In the next assay the target is HLA-A*33:01. The assay is described as above. The settings on record: source organism: Vaccinia virus WR.
Another assay deals with HLA-B*53:01. The description is as above. The conditions noted are these: source organism: Vaccinia virus WR.
The target of assay [10] is HLA-A*31:01. The description is as above. The conditions noted are these: source organism: Vaccinia virus WR.
The target in assay [11] is HLA-A*03:01. Described as above. The conditions noted are these: source organism: Vaccinia virus WR.
In a further assay the target is HLA-B*51:01. The description is as above. The settings on record: source organism: Vaccinia virus WR.
Assay [12] addresses HLA-A*11:01. The assay is described as above. The settings on record: source organism: Vaccinia virus WR.
The target in assay [13] is HLA-B*15:01. The experiment in a line: IEDB peptide-MHC binding, purified MHC/direct/fluorescence; filed as Kd, often an IC50 or EC50 that approximates it; ≥ and ≤ were set here for values at or beyond the usual limits of such assays.
The target in assay [14] is HLA-A*31:01. The assay is described as above.
The target of assay [15] is HLA-B*15:01. The experiment in a line: IEDB peptide-MHC binding, purified MHC/competitive/radioactivity; filed as Kd, often an IC50 or EC50 that approximates it; ≥ and ≤ were set here for values at or beyond the usual limits of such assays. The settings on record: source organism: Dengue virus 1 Brazil/97-11/1997.
[16] abbreviates: source organism: Salmonella enterica.
Setting [17] is: source organism: Mammarenavirus lassaense.
Setting [18] is: source organism: Influenza A virus (A/SW/MN/3227/00(H1N2)).
Where [19] appears, read: source organism: Dengue virus 3 Martinique/1243/1999.
Where [20] appears, read: source organism: dengue virus type 2.
The mark [21] stands for this setting: source organism: Vibrio parahaemolyticus.
[22] abbreviates: source organism: Dengue virus 2 Jamaica/1409/1983.
The mark [23] stands for this setting: source organism: Bacillus anthracis.
Where [24] appears, read: source organism: Dengue virus 1 Brazil/97-11/1997.
[25] abbreviates: source organism: Aggregatibacter actinomycetemcomitans.

As a reminder, the Kd is the constant that tells how readily two partners part at equilibrium.

In the assay with HLA-A*26:01 [1] (source organism: Escherichia coli), DVSEQLELI had a Kd of at least 20 µM.
As to NERWFREVI, the Kd with HLA-B*40:01 [2] (setting [16]) worked out at 0.653 µM; with HLA-B*18:01 (setting [16]), 0.0052 µM.
In the assay with HLA-A*24:03 (setting [17]), AVLPRDMVF showed a dissociation constant Kd of 0.11 µM.
As to LEESHPGIF, the Kd with HLA-B*40:01 [2] (setting [18]) is 0.0853 µM; with HLA-B*44:02 (setting [18]) it was at least 20 µM.
On to RMKWMMAMRY, for which, in the assay with HLA-A*03:01 [3] (source organism: Influenza A virus (A/chicken/Fujian/25/00(H9N2))), the Kd is 0.131 µM.
RLNPMHQLLR came in with a dissociation constant (Kd) with HLA-A*03:01 [3] (source organism: Influenza A virus H3N2) of 0.805 µM.
Regarding EESRTIRVL, the Kd with HLA-B*40:01 [4] (setting [19]) is 0.249 µM; with HLA-B*44:03 (setting [19]), 0.0302 µM.
In the assay with HLA-A*03:01 [3] (source organism: Bacillus anthracis str. A0488), MVFVELPSK returned a dissociation constant (Kd) of 0.101 µM.
For the sequence LYGLITEQF, the dissociation constant (Kd) with HLA-A*29:02 turned out to be 2.07 µM; in the assay with HLA-A*24:02 it was 0.0155 µM; with HLA-A*23:01, 0.00398 µM; with HLA-A*24:03 (source organism: Mammarenavirus machupoense), 0.0002 µM.
With SVYGLMGFH, the Kd with HLA-A*03:01 [3] (source organism: Canarypox virus) worked out at 0.0292 µM.
Turning to EEEQTLTIL, the results for the Kd with HLA-B*18:01 (setting [20]) and with HLA-B*44:02 (setting [20]) were 4.02 µM and at least 20 µM, respectively.
NSIPAVIGY returned an equilibrium dissociation constant (Kd) with HLA-A*26:01 [1] (source organism: Kurkino virus) of 0.42 µM.
In the assay with HLA-A*24:03 (setting [17]), AWENTVVDL yielded a Kd of 1.5 µM.
As to ADTGCAVSW, the Kd in the assay with HLA-B*44:03 (source organism: Dengue virus 4 Philippines/H241/1956) came to 0.224 µM.
On to QYDDLHKKF, for which the Kd with HLA-B*08:01 (setting [21]), with HLA-B*07:02 [5] (setting [21]), with HLA-A*01:01 (setting [21]), with HLA-B*40:01 [2] (setting [21]), with HLA-A*02:01 (setting [21]) and with HLA-B*58:01 (setting [21]) was at least 20 µM each time. In addition, the Kd is at least 20 µM with HLA-A*03:01 [6] (setting [21]); 0.0626 µM with HLA-A*24:03 (setting [21]); at least 20 µM with HLA-B*44:02 (setting [21]); at least 20 µM with HLA-B*27:05 (setting [21]); at least 20 µM with HLA-A*69:01 (setting [21]); at least 20 µM in the assay with HLA-A*11:01 [7] (setting [21]). The sequence further registered a dissociation constant Kd with HLA-A*26:01 [8] (setting [21]) of at least 20 µM.
Turning to HVDGKILFV, the Kd is at least 77.7 µM with HLA-A*68:01; at least 77.4 µM with HLA-B*35:01; at least 78.1 µM with HLA-B*54:01; at least 77.5 µM in the assay with HLA-B*07:02 [9]; at least 77.7 µM in the assay with HLA-A*33:01; 11.5 µM with HLA-B*53:01. The Kd with HLA-A*31:01 [10] is at least 40.5 µM; with HLA-A*03:01 [11], 3.14 µM; in the assay with HLA-B*51:01, at least 68.5 µM; with HLA-A*11:01 [12] it was at least 72.3 µM.
In the case of KLFFQVIAK, in the assay with HLA-A*03:01 [3] (source organism: Yersinia pestis Antiqua), the equilibrium dissociation constant (Kd) is 0.0065 µM.
With LEFFLIVLLI, the Kd came to 0.65 µM with HLA-B*40:01 [4] (setting [22]) and 2.48 µM in the assay with HLA-B*44:03 (setting [22]).
Sequence AMSTWSFYH came in with a Kd with HLA-A*03:01 [3] (source organism: Yersinia pestis Nepal516) of 0.0133 µM.
Regarding FIFGKMGAG, the equilibrium dissociation constant (Kd) with HLA-B*08:01 (setting [23]), with HLA-B*07:02 [5] (setting [23]), with HLA-A*01:01 (setting [23]), with HLA-B*40:01 [2] (setting [23]), in the assay with HLA-B*15:01 [13] (setting [23]) and with HLA-A*02:01 (setting [23]) was at least 20 µM each time. Moreover, the Kd with HLA-A*31:01 [14] (setting [23]), in the assay with HLA-B*58:01 (setting [23]), with HLA-A*03:01 [6] (setting [23]), with HLA-B*44:02 (setting [23]), with HLA-B*27:05 (setting [23]) and in the assay with HLA-A*69:01 (setting [23]) was at least 20 µM in each case. The values for the dissociation constant Kd with HLA-A*11:01 [7] (setting [23]) and with HLA-A*26:01 [8] (setting [23]) were at least 20 µM and 5.37 µM, respectively.
As for MEHKYSWKS, the Kd with HLA-B*44:03 (setting [24]) worked out at 1 µM.
On to KYDDRIQSQ, for which the dissociation constant (Kd) with HLA-B*08:01 (setting [25]), with HLA-B*07:02 [5] (setting [25]), with HLA-B*40:01 [2] (setting [25]), with HLA-B*15:01 [13] (setting [25]), with HLA-A*02:01 (setting [25]) and in the assay with HLA-A*31:01 [14] (setting [25]) was at least 20 µM throughout. In addition, the Kd with HLA-B*58:01 (setting [25]), in the assay with HLA-A*03:01 [6] (setting [25]), with HLA-A*24:03 (setting [25]), with HLA-B*27:05 (setting [25]), in the assay with HLA-A*69:01 (setting [25]) and with HLA-A*11:01 [7] (setting [25]) was at least 20 µM each time. Besides, the equilibrium dissociation constant (Kd) with HLA-A*26:01 [8] (setting [25]) is at least 20 µM.
As for VEEDIRWKF, in the assay with HLA-B*18:01 (source organism: Bacillus cereus), the Kd came to 0.0192 µM.
Turning to QQVPFCSHHF, the Kd with HLA-B*15:01 [15] is 0.0139 µM; with HLA-B*44:03 (setting [24]), 0.272 µM.
Take FSFGDYFKK: the dissociation constant Kd with HLA-A*03:01 [3] (source organism: Fusobacterium vincentii ATCC 49256) turned out to be 0.0395 µM.
